Measurements as given in paper PMC2213029 (The Journal of Experimental Medicine, 2005).
Non-standard residues stand in square brackets, D forms with d. No end group written: not given here. pY = N[C@@H](Cc1ccc(OP(=O)(O)O)cc1)C(=O)O

Molecular target: T1, CD45-D1D2 (597–1213) C828S (human, UniProt P08575 622-1238, C828S, selenomethionine (Sel-Met) substituted in the crystals with the phosphopeptides)
T1 sequence (looked up): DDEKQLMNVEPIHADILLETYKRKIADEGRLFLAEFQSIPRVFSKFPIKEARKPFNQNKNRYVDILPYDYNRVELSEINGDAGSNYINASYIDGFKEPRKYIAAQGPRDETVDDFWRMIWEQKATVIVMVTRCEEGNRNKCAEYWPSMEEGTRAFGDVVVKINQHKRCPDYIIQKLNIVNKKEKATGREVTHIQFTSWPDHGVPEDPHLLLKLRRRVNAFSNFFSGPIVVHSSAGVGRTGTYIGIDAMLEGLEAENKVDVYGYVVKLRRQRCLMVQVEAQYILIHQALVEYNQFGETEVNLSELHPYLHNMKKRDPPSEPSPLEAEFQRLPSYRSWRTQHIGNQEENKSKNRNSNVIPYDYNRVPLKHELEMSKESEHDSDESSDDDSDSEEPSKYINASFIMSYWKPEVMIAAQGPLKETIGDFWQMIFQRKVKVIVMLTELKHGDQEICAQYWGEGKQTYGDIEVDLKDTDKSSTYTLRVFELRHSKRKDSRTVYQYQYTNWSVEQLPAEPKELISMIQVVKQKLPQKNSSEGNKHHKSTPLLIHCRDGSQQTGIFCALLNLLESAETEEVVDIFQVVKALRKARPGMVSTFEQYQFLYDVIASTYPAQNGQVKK
Experiment: crystal structure

Row | Binder | binding result
1 | NPT[pY]S [NPTpYS phosphopeptide derived from the polyoma middle T antigen] | binds
2 | QQQQNQL[pY]NELNLGRREE[pY]DVLDKRRG [CD3ζ ITAM-1 phosphopeptide (membrane proximal ITAM of the CD3ζ chain, both tyrosines phosphorylated)] | binds
